Experimental data from patent US20230242902A1, “A HIGHLY ERROR-PRONE […] R[…] FOR TARGETED CONTINUOUS EVOLUTION IN VIVO” (The Regents of the University of California, priority 2017, published 2023).
Substitutions are numbered along the chain they refer to. Names may count otherwise.

B1: E298H: TP-DNAP1 variant (protein)
chain: MDYKDKALNDLRNVYADFDSLPLDFRQILIKDRATLLQKEDVEKKILERQEDAKKYAEYLKQSEIPERISLPNIKRHKGVSISFEETSEDMVLEPRPFIFDGLNIRCFRRETIFSLKNKILNMVKESSSFKNVSRQSVSFMYFKIFNKGKVIASTKSVNIYEDKIDERLEDLCNNFDDVLKKIIDVTYGYESLFVSETYSYVIFYAKSIYFPQPRCVNNWGNNIPNILTFDSFKLFTANKNNVSCIKQCSRFLWQKDFNTLEEMIEYKNGNICIVTPQLHINDVRDIKSFNDIRLYSHSPIKTFSVIDNTITYLFYFKEHLGVIFNITKSRHDRRVTKFSPLSKFSDVKNITVCFDIESYFDPEKESNQVNIPFICCASIIYNKVIGNIVDFEGRDCVAQMIEYVVDICGELNISSVELIAHNGGGYDFHYILSSMYNPAAIKNILIRNNSFISFNFAHDGVKFSVKDSYSFLLCSLANASKAFLNEETFKKTDFPHHDLKTADDLYKVYKEWSSVNTEINHVVEKEKLLITSEHIVNFTKNDKSKTLIEWSKDYCRNDVLVLSKVWLEFKNAVEDIFNCELVDQTMTLAGLSYKLFQANMPFDVELRHPNKEDYFNMREALIGGRCISVNGIYKDVLCLDVKSLYPASMAFYDQPYGSFKRVSSRPKDELGIYYVRVTPNRNNKSNFFPIRSHNKITYNNFEESTYIAWYTNVDIDIGLSEGHNIEYIPFDSYGNIGYSWSKKGKIFEKYIKDVLYKLKIKYEKQNNKVKRNVIKIIMNSLWGKFAQKWVNFEYFIKSEDDIDFESEEAYKIWDTDFMLIKKIKESTYSSKPIQNGVFTLSWARYHMKSIWDAGAKEGAECIYSDTDSIFVHKEHFKKNAKFMLNGLKVPIIGSEVGQLELECEFDKLLCAGKKQYMGFYTYFQDGKPCIKEKKRFKGIPSNYIIPELYAHLLSGADKEAKIQFLKFRREWGSVKGYIENKTVKAT
B2: E298S: TP-DNAP1 variant (protein)
chain: B1 chain with H298S
B3: T706P: TP-DNAP1 variant (protein)
chain: B1 chain with H298E, T706P
B4: T706G: TP-DNAP1 variant (protein)
chain: B1 chain with H298E, T706G
B5: S733E: TP-DNAP1 variant (protein)
chain: B1 chain with H298E, S733E
B6: S733N: TP-DNAP1 variant (protein)
chain: B1 chain with H298E, S733N
B7: I729V: TP-DNAP1 variant (protein)
chain: B1 chain with H298E, I729V
B8: K959M: TP-DNAP1 variant (protein)
chain: B1 chain with H298E, K959M
B9: I729F: TP-DNAP1 variant (protein)
chain: B1 chain with H298E, I729F
B10: E298P: TP-DNAP1 variant (protein)
chain: B1 chain with H298P
B11: S733Q: TP-DNAP1 variant (protein)
chain: B1 chain with H298E, S733Q
B12: I708T: TP-DNAP1 variant (protein)
chain: B1 chain with H298E, I708T
B13: I708E: TP-DNAP1 variant (protein)
chain: B1 chain with H298E, I708E
B14: E298F: TP-DNAP1 variant (protein)
chain: B1 chain with H298F
B15: I708A: TP-DNAP1 variant (protein)
chain: B1 chain with H298E, I708A
B16: S831T: TP-DNAP1 variant (protein)
chain: B1 chain with H298E, S831T
B17: T706Q: TP-DNAP1 variant (protein)
chain: B1 chain with H298E, T706Q
B18: Y829F: TP-DNAP1 variant (protein)
chain: B1 chain with H298E, Y829F
B19: A709N: TP-DNAP1 variant (protein)
chain: B1 chain with H298E, A709N
B20: I301C: TP-DNAP1 variant (protein)
chain: B1 chain with H298E, I301C
B21: S733R: TP-DNAP1 variant (protein)
chain: B1 chain with H298E, S733R
B22: I708L: TP-DNAP1 variant (protein)
chain: B1 chain with H298E, I708L
B23: K962Q: TP-DNAP1 variant (protein)
chain: B1 chain with H298E, K962Q
B24: T706W: TP-DNAP1 variant (protein)
chain: B1 chain with H298E, T706W
B25: E298Y: TP-DNAP1 variant (protein)
chain: B1 chain with H298Y
B26: T706R: TP-DNAP1 variant (protein)
chain: B1 chain with H298E, T706R
B27: S705L: TP-DNAP1 variant (protein)
chain: B1 chain with H298E, S705L
B28: I824E: TP-DNAP1 variant (protein)
chain: B1 chain with H298E, I824E
B29: S705F: TP-DNAP1 variant (protein)
chain: B1 chain with H298E, S705F
B30: K959A: TP-DNAP1 variant (protein)
chain: B1 chain with H298E, K959A
B31: Y829I: TP-DNAP1 variant (protein)
chain: B1 chain with H298E, Y829I
B32: I301L: TP-DNAP1 variant (protein)
chain: B1 chain with H298E, I301L
B33: E298I: TP-DNAP1 variant (protein)
chain: B1 chain with H298I
B34: I301E: TP-DNAP1 variant (protein)
chain: B1 chain with H298E, I301E
B35: E298V: TP-DNAP1 variant (protein)
chain: B1 chain with H298V
B36: I708M: TP-DNAP1 variant (protein)
chain: B1 chain with H298E, I708M
B37: I708V: TP-DNAP1 variant (protein)
chain: B1 chain with H298E, I708V
B38: I301A: TP-DNAP1 variant (protein)
chain: B1 chain with H298E, I301A
B39: I729W: TP-DNAP1 variant (protein)
chain: B1 chain with H298E, I729W

System: p1
Assay: p1 copy number by p1-encoded mKate2 fluorescence
Format: cell-based, S. cerevisiae
Settings: OR-Y24, measured in triplicate
How it was run: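 Yeast OR-Y24 strains carrying TP-DNAP1 variants were grown to saturation from a 1:10,000 dilution, and p1-encoded mKate2 fluorescence was measured by flow cytometry (ex/em 561/620 nm). Values were converted to copy number via a linear calibration against qPCR of p1-encoded LEU2 versus genomic LEU3, or by plate-reader OD600-normalized fluorescence relative to w.t. TP-DNAP1.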

Molecule	Mean fold-increase over w.t. (p1 copy number) [fold]
B1	2.57
B2	2.43
B3	1.73
B4	1.72
B5	2.06
B6	1.86
B7	1.87
B8	2.02
B9	1.7
B10	2.57
B11	1.86
B12	2.41
B13	2.41
B14	1.74
B15	2.55
B16	1.71
B17	2.92
B18	2.46
B19	2.01
B20	2.46

Molecule	Mean fold-increase over w.t. (p1 copy number) [fold]
B21	1.98
B22	2.16
B23	1.56
B24	1.73
B25	2.17
B26	2
B27	1.98
B28	2.12
B29	1.76
B30	1.55
B31	1.86
B32	2.94
B33	2.34
B34	2.57
B35	2.64
B36	2.32
B37	2.01
B38	2.41
B39	1.97
